Source: patent publication EP4588489A1, “LINKER FOR ANTIBODY-DRUG CONJUGATE AND USE THEREOF” (priority 2022, dated 2024)

T1: TROP2 (UniProt P09758 27-323, limits assumed)
T1 sequence (looked up): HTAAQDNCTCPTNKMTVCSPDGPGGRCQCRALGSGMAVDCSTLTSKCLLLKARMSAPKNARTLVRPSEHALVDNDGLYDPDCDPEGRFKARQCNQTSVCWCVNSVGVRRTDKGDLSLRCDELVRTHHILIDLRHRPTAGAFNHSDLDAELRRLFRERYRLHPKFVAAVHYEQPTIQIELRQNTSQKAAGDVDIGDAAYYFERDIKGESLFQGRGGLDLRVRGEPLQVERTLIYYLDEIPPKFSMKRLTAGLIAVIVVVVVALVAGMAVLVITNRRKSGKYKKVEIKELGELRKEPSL


biological target: T1, TROP2; assay: cell-based or functional assay

| Binder | EC50(nM), inhibition of BxPC-3 cell proliferation [nM] | Relative activity (%), inhibition of BxPC-3 cell proliferation [%] |
| --- | --- | --- |
| hRS7-CPD3-NC-D4 (antibody, human IgG1, kappa, V domains shown, linker-drug CPD3 on cysteines of reduced interchain disulfides; label D4) VH: QVQLQQSGSELKKPGASVKVSCKASGYTFTNYGMNWVKQAPGQGLKWMGWINTYTGEPTYTDDFKGRFAFSLDTSVSTAYLQISSLKADDTAVYFCARGGFGSSYWYFDVWGQGSLVTVSS VL: DIQLTQSPSSLSASVGDRVSITCKASQDVSIAVAWYQQKPGKAPKLLIYSASYRYTGVPDRFSGSGSGTDFTLTISSLQPEDFAVYYCQQHYITPLTFGAGTKVEIKR | 0.309 | 156 |
| DXD (deruxtecan)-conjugated sacituzumab (hRS7-DXD) (antibody, human IgG1, kappa, V domains shown, deruxtecan (DXD) on cysteines of reduced interchain disulfides; label D4) VH: QVQLQQSGSELKKPGASVKVSCKASGYTFTNYGMNWVKQAPGQGLKWMGWINTYTGEPTYTDDFKGRFAFSLDTSVSTAYLQISSLKADDTAVYFCARGGFGSSYWYFDVWGQGSLVTVSS VL: DIQLTQSPSSLSASVGDRVSITCKASQDVSIAVAWYQQKPGKAPKLLIYSASYRYTGVPDRFSGSGSGTDFTLTISSLQPEDFAVYYCQQHYITPLTFGAGTKVEIKR | 0.38 | 100 |
| hRS7-CPD4-NC-D4 (antibody, human IgG1, kappa, V domains shown, linker-drug CPD4 on cysteines of reduced interchain disulfides; label D4) VH: QVQLQQSGSELKKPGASVKVSCKASGYTFTNYGMNWVKQAPGQGLKWMGWINTYTGEPTYTDDFKGRFAFSLDTSVSTAYLQISSLKADDTAVYFCARGGFGSSYWYFDVWGQGSLVTVSS VL: DIQLTQSPSSLSASVGDRVSITCKASQDVSIAVAWYQQKPGKAPKLLIYSASYRYTGVPDRFSGSGSGTDFTLTISSLQPEDFAVYYCQQHYITPLTFGAGTKVEIKR | 0.424 | 89.6 |
| hRS7-CPD2-NC-D4 (antibody, human IgG1, kappa, V domains shown, linker-drug CPD2 on cysteines of reduced interchain disulfides; label D4) VH: QVQLQQSGSELKKPGASVKVSCKASGYTFTNYGMNWVKQAPGQGLKWMGWINTYTGEPTYTDDFKGRFAFSLDTSVSTAYLQISSLKADDTAVYFCARGGFGSSYWYFDVWGQGSLVTVSS VL: DIQLTQSPSSLSASVGDRVSITCKASQDVSIAVAWYQQKPGKAPKLLIYSASYRYTGVPDRFSGSGSGTDFTLTISSLQPEDFAVYYCQQHYITPLTFGAGTKVEIKR | 0.327 | 147 |
| hRS7-CPD1-NC-D4 (antibody, human IgG1, kappa, V domains shown, linker-drug CPD1 on cysteines of reduced interchain disulfides; label D4) VH: QVQLQQSGSELKKPGASVKVSCKASGYTFTNYGMNWVKQAPGQGLKWMGWINTYTGEPTYTDDFKGRFAFSLDTSVSTAYLQISSLKADDTAVYFCARGGFGSSYWYFDVWGQGSLVTVSS VL: DIQLTQSPSSLSASVGDRVSITCKASQDVSIAVAWYQQKPGKAPKLLIYSASYRYTGVPDRFSGSGSGTDFTLTISSLQPEDFAVYYCQQHYITPLTFGAGTKVEIKR | 0.468 | 103 |

Results, then the binder that gave them:

| EC50(nM), inhibition of BxPC-3 cell proliferation [nM] | Relative activity (%), inhibition of BxPC-3 cell proliferation [%] | Binder |
| --- | --- | --- |
| 0.478 | 79.6 | hRS7-CPD5-NC-D4 (antibody, human IgG1, kappa, V domains shown, linker-drug CPD5 on cysteines of reduced interchain disulfides; label D4) VH: QVQLQQSGSELKKPGASVKVSCKASGYTFTNYGMNWVKQAPGQGLKWMGWINTYTGEPTYTDDFKGRFAFSLDTSVSTAYLQISSLKADDTAVYFCARGGFGSSYWYFDVWGQGSLVTVSS VL: DIQLTQSPSSLSASVGDRVSITCKASQDVSIAVAWYQQKPGKAPKLLIYSASYRYTGVPDRFSGSGSGTDFTLTISSLQPEDFAVYYCQQHYITPLTFGAGTKVEIKR |
| 0.341 | 111 | hRS7-CPD6-NC-D4 (antibody, human IgG1, kappa, V domains shown, linker-drug CPD6 on cysteines of reduced interchain disulfides; label D4) VH: QVQLQQSGSELKKPGASVKVSCKASGYTFTNYGMNWVKQAPGQGLKWMGWINTYTGEPTYTDDFKGRFAFSLDTSVSTAYLQISSLKADDTAVYFCARGGFGSSYWYFDVWGQGSLVTVSS VL: DIQLTQSPSSLSASVGDRVSITCKASQDVSIAVAWYQQKPGKAPKLLIYSASYRYTGVPDRFSGSGSGTDFTLTISSLQPEDFAVYYCQQHYITPLTFGAGTKVEIKR |

biological target: T1, TROP2; assay: cell-based or functional assay; remark: another data set of the same source

| Binder | EC50(nM), inhibition of BxPC-3 cell proliferation [nM] | Relative activity (%), inhibition of BxPC-3 cell proliferation [%] |
| --- | --- | --- |
| DXD (deruxtecan)-conjugated sacituzumab (hRS7-DXD) (antibody, human IgG1, kappa, V domains shown, deruxtecan (DXD) on cysteines of reduced interchain disulfides; label D4) VH: QVQLQQSGSELKKPGASVKVSCKASGYTFTNYGMNWVKQAPGQGLKWMGWINTYTGEPTYTDDFKGRFAFSLDTSVSTAYLQISSLKADDTAVYFCARGGFGSSYWYFDVWGQGSLVTVSS VL: DIQLTQSPSSLSASVGDRVSITCKASQDVSIAVAWYQQKPGKAPKLLIYSASYRYTGVPDRFSGSGSGTDFTLTISSLQPEDFAVYYCQQHYITPLTFGAGTKVEIKR | 0.156 | 100 |
| hRS7-CL2A-SN38-D8 (antibody, human IgG1, kappa, V domains shown, CL2A-SN38 on cysteines of reduced interchain disulfides; label D8) VH: QVQLQQSGSELKKPGASVKVSCKASGYTFTNYGMNWVKQAPGQGLKWMGWINTYTGEPTYTDDFKGRFAFSLDTSVSTAYLQISSLKADDTAVYFCARGGFGSSYWYFDVWGQGSLVTVSS VL: DIQLTQSPSSLSASVGDRVSITCKASQDVSIAVAWYQQKPGKAPKLLIYSASYRYTGVPDRFSGSGSGTDFTLTISSLQPEDFAVYYCQQHYITPLTFGAGTKVEIKR | 0.259 | 100 |

The remaining lines, values ahead:

| EC50(nM), inhibition of BxPC-3 cell proliferation [nM] | Relative activity (%), inhibition of BxPC-3 cell proliferation [%] | Binder |
| --- | --- | --- |
| 0.101 | 155 | hRS7-CPT005-D4 (antibody, human IgG1, kappa, V domains shown, linker-drug CPT005 on cysteines of reduced interchain disulfides; label D4) VH: QVQLQQSGSELKKPGASVKVSCKASGYTFTNYGMNWVKQAPGQGLKWMGWINTYTGEPTYTDDFKGRFAFSLDTSVSTAYLQISSLKADDTAVYFCARGGFGSSYWYFDVWGQGSLVTVSS VL: DIQLTQSPSSLSASVGDRVSITCKASQDVSIAVAWYQQKPGKAPKLLIYSASYRYTGVPDRFSGSGSGTDFTLTISSLQPEDFAVYYCQQHYITPLTFGAGTKVEIKR |
| 6.46 |  | hRS7-SN38-D8 (antibody, human IgG1, kappa, V domains shown, comp.5-linked SN38 on cysteines of reduced interchain disulfides; label D8) VH: QVQLQQSGSELKKPGASVKVSCKASGYTFTNYGMNWVKQAPGQGLKWMGWINTYTGEPTYTDDFKGRFAFSLDTSVSTAYLQISSLKADDTAVYFCARGGFGSSYWYFDVWGQGSLVTVSS VL: DIQLTQSPSSLSASVGDRVSITCKASQDVSIAVAWYQQKPGKAPKLLIYSASYRYTGVPDRFSGSGSGTDFTLTISSLQPEDFAVYYCQQHYITPLTFGAGTKVEIKR |
| 0.144 | 109 | hRS7-CPT004-D4 (antibody, human IgG1, kappa, V domains shown, linker-drug CPT004 on cysteines of reduced interchain disulfides; label D4) VH: QVQLQQSGSELKKPGASVKVSCKASGYTFTNYGMNWVKQAPGQGLKWMGWINTYTGEPTYTDDFKGRFAFSLDTSVSTAYLQISSLKADDTAVYFCARGGFGSSYWYFDVWGQGSLVTVSS VL: DIQLTQSPSSLSASVGDRVSITCKASQDVSIAVAWYQQKPGKAPKLLIYSASYRYTGVPDRFSGSGSGTDFTLTISSLQPEDFAVYYCQQHYITPLTFGAGTKVEIKR |
| 0.353 | 50.7 | hRS7-CPT009-D4 (antibody, human IgG1, kappa, V domains shown, linker-drug CPT009 on cysteines of reduced interchain disulfides; label D4) VH: QVQLQQSGSELKKPGASVKVSCKASGYTFTNYGMNWVKQAPGQGLKWMGWINTYTGEPTYTDDFKGRFAFSLDTSVSTAYLQISSLKADDTAVYFCARGGFGSSYWYFDVWGQGSLVTVSS VL: DIQLTQSPSSLSASVGDRVSITCKASQDVSIAVAWYQQKPGKAPKLLIYSASYRYTGVPDRFSGSGSGTDFTLTISSLQPEDFAVYYCQQHYITPLTFGAGTKVEIKR |
| 0.259 | 60.4 | hRS7-CPT006-D4 (antibody, human IgG1, kappa, V domains shown, linker-drug CPT006 on cysteines of reduced interchain disulfides; label D4) VH: QVQLQQSGSELKKPGASVKVSCKASGYTFTNYGMNWVKQAPGQGLKWMGWINTYTGEPTYTDDFKGRFAFSLDTSVSTAYLQISSLKADDTAVYFCARGGFGSSYWYFDVWGQGSLVTVSS VL: DIQLTQSPSSLSASVGDRVSITCKASQDVSIAVAWYQQKPGKAPKLLIYSASYRYTGVPDRFSGSGSGTDFTLTISSLQPEDFAVYYCQQHYITPLTFGAGTKVEIKR |

biological target: T1, TROP2; assay: cell-based or functional assay; remark: another data set of the same source

| Relative activity (%), inhibition of BxPC-3 cell proliferation [%] | EC50(nM), inhibition of BxPC-3 cell proliferation [nM] | Binder |
| --- | --- | --- |
| 100 |  | DXD (deruxtecan)-conjugated sacituzumab (hRS7-DXD) (antibody, human IgG1, kappa, V domains shown, deruxtecan (DXD) on cysteines of reduced interchain disulfides; label D4) VH: QVQLQQSGSELKKPGASVKVSCKASGYTFTNYGMNWVKQAPGQGLKWMGWINTYTGEPTYTDDFKGRFAFSLDTSVSTAYLQISSLKADDTAVYFCARGGFGSSYWYFDVWGQGSLVTVSS VL: DIQLTQSPSSLSASVGDRVSITCKASQDVSIAVAWYQQKPGKAPKLLIYSASYRYTGVPDRFSGSGSGTDFTLTISSLQPEDFAVYYCQQHYITPLTFGAGTKVEIKR |
| 103 | 0.305 | hRS7-C7-D4 (antibody, human IgG1, kappa, V domains shown, linker-drug comp7 on cysteines of reduced interchain disulfides; DAR 3.56) VH: QVQLQQSGSELKKPGASVKVSCKASGYTFTNYGMNWVKQAPGQGLKWMGWINTYTGEPTYTDDFKGRFAFSLDTSVSTAYLQISSLKADDTAVYFCARGGFGSSYWYFDVWGQGSLVTVSS VL: DIQLTQSPSSLSASVGDRVSITCKASQDVSIAVAWYQQKPGKAPKLLIYSASYRYTGVPDRFSGSGSGTDFTLTISSLQPEDFAVYYCQQHYITPLTFGAGTKVEIKR |
| 97 | 0.323 | hRS7-C8-D4 (antibody, human IgG1, kappa, V domains shown, linker-drug comp8 on cysteines of reduced interchain disulfides; DAR 3.52) VH: QVQLQQSGSELKKPGASVKVSCKASGYTFTNYGMNWVKQAPGQGLKWMGWINTYTGEPTYTDDFKGRFAFSLDTSVSTAYLQISSLKADDTAVYFCARGGFGSSYWYFDVWGQGSLVTVSS VL: DIQLTQSPSSLSASVGDRVSITCKASQDVSIAVAWYQQKPGKAPKLLIYSASYRYTGVPDRFSGSGSGTDFTLTISSLQPEDFAVYYCQQHYITPLTFGAGTKVEIKR |
| 108 | 0.377 | hRS7-C9-D4 (antibody, human IgG1, kappa, V domains shown, linker-drug comp9 on cysteines of reduced interchain disulfides; DAR 3.54) VH: QVQLQQSGSELKKPGASVKVSCKASGYTFTNYGMNWVKQAPGQGLKWMGWINTYTGEPTYTDDFKGRFAFSLDTSVSTAYLQISSLKADDTAVYFCARGGFGSSYWYFDVWGQGSLVTVSS VL: DIQLTQSPSSLSASVGDRVSITCKASQDVSIAVAWYQQKPGKAPKLLIYSASYRYTGVPDRFSGSGSGTDFTLTISSLQPEDFAVYYCQQHYITPLTFGAGTKVEIKR |
| 80 | 0.393 | hRS7-C6-D4 (antibody, human IgG1, kappa, V domains shown, linker-drug comp6 on cysteines of reduced interchain disulfides; DAR 3.49) VH: QVQLQQSGSELKKPGASVKVSCKASGYTFTNYGMNWVKQAPGQGLKWMGWINTYTGEPTYTDDFKGRFAFSLDTSVSTAYLQISSLKADDTAVYFCARGGFGSSYWYFDVWGQGSLVTVSS VL: DIQLTQSPSSLSASVGDRVSITCKASQDVSIAVAWYQQKPGKAPKLLIYSASYRYTGVPDRFSGSGSGTDFTLTISSLQPEDFAVYYCQQHYITPLTFGAGTKVEIKR |
